In paper PMC3887093:

B1: DBP-RII with C-terminally fused GFP, wild type, on the surface of HEK293T cells [Plasmodium vivax] / Duffy antigen/receptor for chemokines (DARC) on human red blood cells [human (endogenous in RBCs)] (parent)
chain 1: ASNTVMKNCNYKRKRRERDWDCNTKKDVCIPDRRYQLCMKELTNLVNNTDTNFHRDITFRKLYLKRKLIYDAAVEGDLLLKLNNYRYNKDFCKDIRWSLGDFGDIIMGTDMEGIGYSKVVENNLRSIFGTDEKAQQRRKQWWNESKAQIWTAMMYSVKKRLKGNFIWICKLNVAVNIEPQIYRWIREWGRDYVSELPTEVQKLKEKCDGKINYTDKKVCKVPPCQNACKSYDQWITRKKNQWDVLSNKFISVKNAEKVQTAGIVTPYDILKQELDEFNEVAFENEINKRDGAYIELCVCSVEEAKKNTQEVVTNVDN
chain 2: MGNCLHRAELSPSTENSSQLDFEDVWNSSYGVNDSFPDGDYGANLEAAAPCHSCNLLDDSALPFFILTSVLGILASSTVLFMLFRPLFRWQLCPGWPVLAQLAVGSALFSIVVPVLAPGLGSTRSSALCSLGYCVWYGSAFAQALLLGCHASLGHRLGAGQVPGLTLGLTVGIWGVAALLTLPVTLASGASGGLCTLIYSTELKALQATHTVACLAIFVLLPLGLFGAKGLKKALGMGPGPWMNILWAWFIFWWPHGVVLGLDFLVRSKLLLLSTCLAQQALDLLLNLAEALAILHCVATPLLLALFCHQATRTLLPSLPLPEGWSSHLDTLGSKS

Variants of: B1
Experiment: red blood cell rosetting (RBC binding) assay with DBP-RII-GFP expressed on HEK293 cells
Conditions: parent: 100, read off a plot

Row | Variant | percent of parent
1 | chain 1 ASNTVMKNCNYKRKRRERDWDCNTKKDVCIPDRRYQLCMKELTNLVNNTDTNFHRDRTFRKLYLKRKLIYDAAVEGDLLLKLNNYRYNKDFCKDIRWSLGDFGDIIMGTDMEGIGYSKVVENNLRSIFGTDEKAQQRRKQWWNESKAQIWTAMMYSVKKRLKGNFIWICKLNVAVNIEPQIYRWIREWGRDYVSELPTEVQKLKEKCDGKINYTDKKVCKVPPCQNACKSYDQWITRKKNQWDVLSNKFISVKNAEKVQTAGIVTPYDILKQELDEFNEVAFENEINKRDGAYIELCVCSVEEAKKNTQEVVTNVDN [chain 1 I57R] | 72 % Binding
2 | chain 1 ASNTVMKNCNYKRKRRERDWDCNTKKDVCIPDRRYQLCMKELTNLVNNTDTNFHRDITFRKLYLKRKLIYDALVEGDLLLKLNNYRYNKDFCKDIRWSLGDFGDIIMGTDMEGIGYSKVVENNLRSIFGTDEKAQQRRKQWWNESKAQIWTAMMYSVKKRLKGNFIWICKLNVAVNIEPQIYRWIREWGRDYVSELPTEVQKLKEKCDGKINYTDKKVCKVPPCQNACKSYDQWITRKKNQWDVLSNKFISVKNAEKVQTAGIVTPYDILKQELDEFNEVAFENEINKRDGAYIELCVCSVEEAKKNTQEVVTNVDN [chain 1 A73L] | 0 % Binding
3 | chain 1 ASNTVMKNCNYKRKRRERDWDCNTKKDVCIPDRRYQLCMKELTNLVNNTDTNFHRDITFRKLYLKRKLIYDAAVEGDLLLKLNNYRYNKDFCKDIRWSLGDFGDIIMGTDMEGIGYSKVVENNLRSIFGTDEKAQQRRKQWWNESKADIWTAMMYSVKKRLKGNFIWICKLNVAVNIEPQIYRWIREWGRDYVSELPTEVQKLKEKCDGKINYTDKKVCKVPPCQNACKSYDQWITRKKNQWDVLSNKFISVKNAEKVQTAGIVTPYDILKQELDEFNEVAFENEINKRDGAYIELCVCSVEEAKKNTQEVVTNVDN [chain 1 Q148D] | 18 % Binding
4 | chain 1 ASNTVMKNCNYKRKRRERDWDCNTKKDVCIPDRRYQLCMKELTNLVNNTDTNFHRDITFRKLYLKRKLIYDAAVEGDLLLKLNNYRYNKDFCKDIRWSLGDFGDIIMGTDMEGIGYSKVVENNLRSIFGTDEKAQQRRKQWWNESKAYIWTAMMYSVKKRLKGNFIWICKLNVAVNIEPQIYRWIREWGRDYVSELPTEVQKLKEKCDGKINYTDKKVCKVPPCQNACKSYDQWITRKKNQWDVLSNKFISVKNAEKVQTAGIVTPYDILKQELDEFNEVAFENEINKRDGAYIELCVCSVEEAKKNTQEVVTNVDN [chain 1 Q148Y] | 66 % Binding
5 | chain 1 ASNTVMKNCNYKRKRRERDWDCNTKKDVCIPDRRYQLCMKELTNLVNNTDTNFHRDITFRKLYLKRKLIYDAAVEGDLLLKLNNYRYNKDFCKDIRWSLGDFGDIIMGTDMEGIGYSKVVENNLRSIFGTDEKAQQRRKQWWNESKAQIWTAMMASVKKRLKGNFIWICKLNVAVNIEPQIYRWIREWGRDYVSELPTEVQKLKEKCDGKINYTDKKVCKVPPCQNACKSYDQWITRKKNQWDVLSNKFISVKNAEKVQTAGIVTPYDILKQELDEFNEVAFENEINKRDGAYIELCVCSVEEAKKNTQEVVTNVDN [chain 1 Y155A] | 0 % Binding
6 | chain 1 ASNTVMKNCNYKRKRRERDWDCNTKKDVCIPDRRYQLCMKELTNLVNNTDTNFHRDITFRKLYLKRKLIYDAAVEGDLLLKLNNYRYNKDFCKDIRWSLGDFGDIIMGTDMEGIGYSKVVENNLRSIFGTDEKAQQRRKQWWNESKAQIWTAMMLSVKKRLKGNFIWICKLNVAVNIEPQIYRWIREWGRDYVSELPTEVQKLKEKCDGKINYTDKKVCKVPPCQNACKSYDQWITRKKNQWDVLSNKFISVKNAEKVQTAGIVTPYDILKQELDEFNEVAFENEINKRDGAYIELCVCSVEEAKKNTQEVVTNVDN [chain 1 Y155L] | 0 % Binding
7 | chain 1 ASNTVMKNCNYKRKRRERDWDCNTKKDVCIPDRRYQLCMKELTNLVNNTDTNFHRRITFRKLYLKRKLIYDAAVEGDLLLKLNNYRYNKDFCKDIRWSLGDFGDIIMGTDMEGIGYSKVVENNLRSIFGTDEKAQQRRKQWWNESKAQIWTAMMYSVKKRLKGNFIWICKLNVAVNIEPQIYRWIREWGRDYVSELPTEVQKLKEKCDGKINYTDKKVCKVPPCQNACKSYDQWITRKKNQWDVLSNKFISVKNAEKVQTAGIVTPYDILKQELDEFNEVAFENEINKRDGAYIELCVCSVEEAKKNTQEVVTNVDN [chain 1 D56R] | 42 % Binding
8 | chain 1 ASNTVMKNCNYKRKRRERDWDCNTKKDVCIPDRRYQLCMKELTNLVNNTDTNFHRWITFRKLYLKRKLIYDAAVEGDLLLKLNNYRYNKDFCKDIRWSLGDFGDIIMGTDMEGIGYSKVVENNLRSIFGTDEKAQQRRKQWWNESKAQIWTAMMYSVKKRLKGNFIWICKLNVAVNIEPQIYRWIREWGRDYVSELPTEVQKLKEKCDGKINYTDKKVCKVPPCQNACKSYDQWITRKKNQWDVLSNKFISVKNAEKVQTAGIVTPYDILKQELDEFNEVAFENEINKRDGAYIELCVCSVEEAKKNTQEVVTNVDN [chain 1 D56W] | 59 % Binding
9 | chain 1 ASNTVMKNCNYKRKRRERDWDCNTKKDVCIPDRRYQLCMKELTNLVNNTDTNFHRDIWFRKLYLKRKLIYDAAVEGDLLLKLNNYRYNKDFCKDIRWSLGDFGDIIMGTDMEGIGYSKVVENNLRSIFGTDEKAQQRRKQWWNESKAQIWTAMMYSVKKRLKGNFIWICKLNVAVNIEPQIYRWIREWGRDYVSELPTEVQKLKEKCDGKINYTDKKVCKVPPCQNACKSYDQWITRKKNQWDVLSNKFISVKNAEKVQTAGIVTPYDILKQELDEFNEVAFENEINKRDGAYIELCVCSVEEAKKNTQEVVTNVDN [chain 1 T58W] | 55 % Binding
